Laboratory results published in the RNAGym collection of RNA variant scans (doi:10.7554/elife.80360).

B1: Hairpin Ribozyme (parent)
chain: GUCCUCUUUCACGUGCGCGUGAAAGAGAGAAGUGAACCAGAGAAACACACGUUGUGGUAUAUUACCUGGUA

Variants of: B1
Experiment: self-cleavage, relative activity (ratio to wild type); higher = more cleavage; co-transcriptional

Row | Variant | self-cleavage
1 | GUCCUGUUUCACGUGCGCGUGAAAGAGAGAAGUGAGCCAGAGAAACACACGUUGUGGUAUAUUACCUGGUA [C6G A36G] | 0.768
2 | GUCCUAUUUCACGUGAGCGUGAAAGAGAGAAGUGAACCAGAGAAACACACGUUGUGGUAUAUUACCUGGUA [C6A C16A] | 0.561
3 | GUCCUGUUUCACGUGCGCGUGAAAGAGAGAAGUGAACAAGAGAAACACACGUUGUGGUAUAUUACCUGGUA [C6G C38A] | 0.103
4 | GUCCUAUUUCACGGGCGCGUGAAAGAGAGAAGUGAACCAGAGAAACACACGUUGUGGUAUAUUACCUGGUA [C6A U14G] | 0.499
5 | GUCCUAUUUCACGUGCGCGUGAAAGAGAGAAGCGAACCAGAGAAACACACGUUGUGGUAUAUUACCUGGUA [C6A U33C] | 0.0869
6 | GUCCUAUUUCACGUGCGCGUGAAAGAGAGAAGUGAACCAGAGAAACACACGUUGUGGUAUAUUACCUGGGA [C6A U70G] | 0.325
7 | GUCCUAUUUCACGUGCGCGGGAAAGAGAGAAGUGAACCAGAGAAACACACGUUGUGGUAUAUUACCUGGUA [C6A U20G] | 0.518
8 | GUCCUAUUUCACGUGCGCGUGAAAGAGAGAAGUGAACCAGAGAAACAUACGUUGUGGUAUAUUACCUGGUA [C6A C48U] | 0.158
9 | GUCCUAUUUCACGUGCGCGUGAAAGAGAGAAGUGAACCAGAGAAACACAAGUUGUGGUAUAUUACCUGGUA [C6A C50A] | 0.223
10 | GUCCUAUUUCACGUGCGCGUGAAAGAGAGAAGUGAACCAGAGAAACACAGGUUGUGGUAUAUUACCUGGUA [C6A C50G] | 0.175
11 | GUCCUGUUUGACGUGCGCGUGAAAGAGAGAAGUGAACCAGAGAAACACACGUUGUGGUAUAUUACCUGGUA [C6G C10G] | 0.277
12 | GUCCUAUUUCACGUGCGCGUGAAAGAGAGAACUGAACCAGAGAAACACACGUUGUGGUAUAUUACCUGGUA [C6A G32C] | 0.133
13 | GUCCUAUUUCACGUGCGCGUGAAAGAGAGAAUUGAACCAGAGAAACACACGUUGUGGUAUAUUACCUGGUA [C6A G32U] | 0.133
14 | GUCCUAUUUCACGUGCGCGUGAAAGAGAGAAAUGAACCAGAGAAACACACGUUGUGGUAUAUUACCUGGUA [C6A G32A] | 0.122
15 | GUCCUAUUUCACGUGCGCGUGAAAGAGAGAAGUGAACCAGAGAAACACACGUUCUGGUAUAUUACCUGGUA [C6A G54C] | 0.209
16 | GUCCUGUUUCACGUGCGCGUGAAAGAGAGAAGUGAACCAGAGAAUCACACGUUGUGGUAUAUUACCUGGUA [C6G A45U] | 0.101
17 | GUCCUGUUUCACGUGCGCGUGAAAGAGAGAAGUGAACCAGAGAAGCACACGUUGUGGUAUAUUACCUGGUA [C6G A45G] | 0.0674
18 | GUCCUGUUUCACGUGCGCGUGAAUGAGAGAAGUGAACCAGAGAAACACACGUUGUGGUAUAUUACCUGGUA [C6G A24U] | 0.331
19 | GUCCUAUUUCAUGUGCGCGUGAAAGAGAGAAGUGAACCAGAGAAACACACGUUGUGGUAUAUUACCUGGUA [C6A C12U] | 0.512
20 | GUCCUGUUUCACGUGCGCGUGAAAGCGAGAAGUGAACCAGAGAAACACACGUUGUGGUAUAUUACCUGGUA [C6G A26C] | 0.22
21 | GUCCUGUUUCACGUGCGCGUGAAAGAGAGAAGUGAACCAGAGAAACUCACGUUGUGGUAUAUUACCUGGUA [C6G A47U] | 0.13
22 | GUCCUGUUUCACGUGCGCGUGAAAGAGAGAAGUGAACCAGAGAAACGCACGUUGUGGUAUAUUACCUGGUA [C6G A47G] | 0.0875
23 | GUCCUAUUUCACGUGCGCGUGAAAGAGAGAAGUGAACCAGAGAAACACACGUUGUGGUAUAUUACCUGGUC [C6A A71C] | 1.14
24 | GUCCUGUUUCACGUGAGCGUGAAAGAGAGAAGUGAACCAGAGAAACACACGUUGUGGUAUAUUACCUGGUA [C6G C16A] | 0.54
25 | GUCCUAUUUCACGUGCGCGUGAAAGAGAGAAGUGAACCAGAGAAACACACGUUGGGGUAUAUUACCUGGUA [C6A U55G] | 0.14
26 | GUCCUAUUUCACGUGCGCGUGAAAGAGAGAAGUGAACCAGAGAAACACACGUUGAGGUAUAUUACCUGGUA [C6A U55A] | 0.202

Row | Variant | self-cleavage
27 | GUCCUAUUUCACGUGCACGUGAAAGAGAGAAGUGAACCAGAGAAACACACGUUGUGGUAUAUUACCUGGUA [C6A G17A] | 0.663
28 | GUCCUAUUUCACGUGCGCGUGAAAGAGAGAAGUGAACCAGAGAAACACACGUUGUGGUAUAGUACCUGGUA [C6A U62G] | 0.0891
29 | GUCCUAUUUCACGUGCGCGUGAAAGAGAGAAGUGAACCAGAGAAACACACGUUGUGGUAUAAUACCUGGUA [C6A U62A] | 0.127
30 | GUCCUAUUUGACGUGCGCGUGAAAGAGAGAAGUGAACCAGAGAAACACACGUUGUGGUAUAUUACCUGGUA [C6A C10G] | 0.377
31 | GUCCUAUUUCACGUGCGCGUCAAAGAGAGAAGUGAACCAGAGAAACACACGUUGUGGUAUAUUACCUGGUA [C6A G21C] | 0.364
32 | GUCCUGUUUCACGUGCGCGUGAAAGAGAGAUGUGAACCAGAGAAACACACGUUGUGGUAUAUUACCUGGUA [C6G A31U] | 0.0803
33 | GUCCUGUUUCACGUGCGCGUGAAAGAGAGACGUGAACCAGAGAAACACACGUUGUGGUAUAUUACCUGGUA [C6G A31C] | 0.0766
34 | GUCCUGUUUCACGUGCGCGUGAAAGAGAGAAGUGUACCAGAGAAACACACGUUGUGGUAUAUUACCUGGUA [C6G A35U] | 0.464
35 | GUCCUAUUUCACGUGCGCGUGAAAGAGAGAAGUGAACCAGAGAAACACACUUUGUGGUAUAUUACCUGGUA [C6A G51U] | 0.58
36 | GUCCUAUUUCACGUGCGCGUGAAAGAGAGAAGUGAACCAGAAAAACACACGUUGUGGUAUAUUACCUGGUA [C6A G42A] | 0.161
37 | GUCCUGUUUCACGUGCGCGUGAUAGAGAGAAGUGAACCAGAGAAACACACGUUGUGGUAUAUUACCUGGUA [C6G A23U] | 0.344
38 | GUCCUGUUUCACGUGCGCGUGAGAGAGAGAAGUGAACCAGAGAAACACACGUUGUGGUAUAUUACCUGGUA [C6G A23G] | 0.446
39 | GUCCUAUUUCACGUGCGCGUGAAAGAGAGAAGUGAACCAGAGAAACACACGUUGUGGCAUAUUACCUGGUA [C6A U58C] | 0.697
40 | GUCCUAUUUCACGUGCGCGUGAAAGAGAGAAGUAAACCAGAGAAACACACGUUGUGGUAUAUUACCUGGUA [C6A G34A] | 0.817
41 | GUCCUGUUUCACGUGCGCGUGAAAGAGAGAAGUGAACCAGAGAAACACACGUUGUGGUAUAUUAACUGGUA [C6G C65A] | 0.527
42 | GUCCUACUUCACGUGCGCGUGAAAGAGAGAAGUGAACCAGAGAAACACACGUUGUGGUAUAUUACCUGGUA [C6A U7C] | 0.609
43 | GUCCUGUUUCACGUGCGCGUGAAAGAGAGAAGUGAACCAGAGAAAUACACGUUGUGGUAUAUUACCUGGUA [C6G C46U] | 0.143
44 | GUCCUGUUUCACGUGCGCGUGAAAGAGAGAAGUGAACCAGAGAAAAACACGUUGUGGUAUAUUACCUGGUA [C6G C46A] | 0.153
45 | GUCCUGUUUCACGUGCGCGUGAAAGAGAGAAGUGAACCAGUGAAACACACGUUGUGGUAUAUUACCUGGUA [C6G A41U] | 0.873
46 | GUCCUGUUUCACGUGCGCGUGAAAGAGAGAAGUGAACCAGAGAAACACACGUUGUGGUAUAUUACGUGGUA [C6G C66G] | 0.166
47 | GUCCUAUUUCACGUGCGCGUGAAAGAGAGAAGUGAACCAGAGAAACACACGUUGUUGUAUAUUACCUGGUA [C6A G56U] | 0.218
48 | GUCCUAUUUCACGUGCGCGUGAAAGAGAGAAGUGAACCAGAGAAACACACGUUGUAGUAUAUUACCUGGUA [C6A G56A] | 0.117
49 | GUCCUGUUUCACGUGCGCGUGAAAGAGAGAAGUGAACCAGAGAAACACACGUUGUGGUAUAUUACCUGGUC [C6G A71C] | 0.855
50 | GUCCUAUUUCACGUGCGCGUGAAAGAGAGAAGUGAACUAGAGAAACACACGUUGUGGUAUAUUACCUGGUA [C6A C38U] | 0.354
51 | GUCCUAUUUCACGUGCGCGUGAAAGAGAGAAGUGAACGAGAGAAACACACGUUGUGGUAUAUUACCUGGUA [C6A C38G] | 0.149
52 | GUCCUAUUUCACGUGCGCGUGAAAGAGAGAAGUGAACCAGAGAAACACACGUUGUGGUAUAUUAUCUGGUA [C6A C65U] | 0.265

Row | Variant | self-cleavage
53 | GUCCUAUUUCACGUGCGCGUGAAAGAGAGAAGUGAACCAGAGAAACACACGUUGUGGUAUAUUAGCUGGUA [C6A C65G] | 0.158
54 | GUCCUGUUUCACGUGCGCGUGAAAGAGAGAAGUGAACCAGAGAAACACACGUUGUGGUAUAUUGCCUGGUA [C6G A64G] | 0.365
55 | GUCCUGUUUCACGUGCGCGUGAAAGAGAGAAGUGAACCAGAGAAACACACGUUGUGGUAUAUUCCCUGGUA [C6G A64C] | 0.123
56 | GUCCUGUUUCACGUGCGCGUGAAAGAGAGAAGUGAACCAGAGAAACACACGUUGUGGUAUAUUUCCUGGUA [C6G A64U] | 0.105
57 | GUCCUGUUUCACGUGCGCGUGAAAGAGAGAAGUGAACCAGAGAAACAAACGUUGUGGUAUAUUACCUGGUA [C6G C48A] | 0.171
58 | GUCCUAUUUCACGUGCGCGUGAAAGACAGAAGUGAACCAGAGAAACACACGUUGUGGUAUAUUACCUGGUA [C6A G27C] | 0.118
59 | GUCCUGUUUCACGUGCGCGUGAAAGAGAGAAGUGAACCAGAGAAACACACGUUGUGGUUUAUUACCUGGUA [C6G A59U] | 0.192
60 | GUCCUGUUUCAUGUGCGCGUGAAAGAGAGAAGUGAACCAGAGAAACACACGUUGUGGUAUAUUACCUGGUA [C6G C12U] | 0.332
61 | GUCCUGUUUCAAGUGCGCGUGAAAGAGAGAAGUGAACCAGAGAAACACACGUUGUGGUAUAUUACCUGGUA [C6G C12A] | 0.572
62 | GUCCUGUUUCAGGUGCGCGUGAAAGAGAGAAGUGAACCAGAGAAACACACGUUGUGGUAUAUUACCUGGUA [C6G C12G] | 0.294
63 | GUCCUGUUUCACGUGCGCGUGCAAGAGAGAAGUGAACCAGAGAAACACACGUUGUGGUAUAUUACCUGGUA [C6G A22C] | 0.342
64 | GUCCUGUUUCACGUGCGCGUGAAAGAGAGAAGUGAACCCGAGAAACACACGUUGUGGUAUAUUACCUGGUA [C6G A39C] | 0.299
65 | GUCCUGUUUCACGUGCGCGUGAAAGAGAGAAGUGAACCUGAGAAACACACGUUGUGGUAUAUUACCUGGUA [C6G A39U] | 0.164
66 | GUCCUAUUUCACGUGCGCUUGAAAGAGAGAAGUGAACCAGAGAAACACACGUUGUGGUAUAUUACCUGGUA [C6A G19U] | 0.505
67 | GUCCUGUUUCCCGUGCGCGUGAAAGAGAGAAGUGAACCAGAGAAACACACGUUGUGGUAUAUUACCUGGUA [C6G A11C] | 0.45
68 | GUCCUGUUUCUCGUGCGCGUGAAAGAGAGAAGUGAACCAGAGAAACACACGUUGUGGUAUAUUACCUGGUA [C6G A11U] | 0.314
69 | GUCCUGUUUCACGUGCGCGUGAAAGAGAGAAGUGAACCAGAGAAACACACGUUGUGGUAUUUUACCUGGUA [C6G A61U] | 0.183
70 | GUCCUAUUUCACGUGCGCGUGAAAGAGAAAAGUGAACCAGAGAAACACACGUUGUGGUAUAUUACCUGGUA [C6A G29A] | 0.129
71 | GUCCUAUUUCACGUGCGCGUGAAAGAGAUAAGUGAACCAGAGAAACACACGUUGUGGUAUAUUACCUGGUA [C6A G29U] | 0.124
72 | GUCCUGUUUCACGUCCGCGUGAAAGAGAGAAGUGAACCAGAGAAACACACGUUGUGGUAUAUUACCUGGUA [C6G G15C] | 0.545
73 | GUCCUAUUUCACGUGCGCGUGAAAGAGAGAAGUGAACCAGAGAAACACACGUUGUGGUAAAUUACCUGGUA [C6A U60A] | 0.541
74 | GUCCUAUAUCACGUGCGCGUGAAAGAGAGAAGUGAACCAGAGAAACACACGUUGUGGUAUAUUACCUGGUA [C6A U8A] | 0.319
75 | GUCCUAUUUCACGUGCGCGUGAAAGAGAGAAGUGAACCAGAGAAACACACGUUGUGGUAUAUUACCGGGUA [C6A U67G] | 0.173
76 | GUCCUAUUUCACGUGCGCGUGAAAGAGAGAAGUGAACCAGAGAAACACACGUUGUGGUUUAUUACCUGGUA [C6A A59U] | 0.107
